Measurements from the supplement of paper PMC9112550, “Optimization of the antimicrobial peptide Bac7 by deep mutational scanning” (BMC Biology, 2022).

test system: Escherichia coli TOP10; experiment: shrunken log2 fold change of peptide-encoding DNA abundance (4.5 h post-induction vs induction); higher = less antimicrobial activity (less host growth inhibition); conditions: time post-induction: 4.5 h; library: site-saturation at positions 5, 18, 19, 20
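Note: peptides expressed intracellularly from a pBAD plasmid library in pooled LB shake-flask culture, induced with 0.3% L-arabinose, DNA abundance read by NGS, three biological replicates, DESeq2 with apeglm shrinkage.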

Row | Sequence | shrunken log2 fold change
1 | RRIRARPPRLPRPRPRPRAEPRP | 0.983
2 | RRIRGRPPRLPRPRPRPNLQPRP | 0.347
3 | RRIRYRPPRLPRPRPRPVIAPRP | -0.354
4 | RRIRTRPPRLPRPRPRPIHKPRP | -0.281
5 | RRIRDRPPRLPRPRPRPDIKPRP | 0.543
6 | RRIRPRPPRLPRPRPRPQDKPRP | -0.00457
7 | RRIRMRPPRLPRPRPRPNLKPRP | 0.158
8 | RRIRPRPPRLPRPRPRPTAKPRP | 0.152
9 | RRIRQRPPRLPRPRPRPRKGPRP | 0.353
10 | RRIRFRPPRLPRPRPRPAAIPRP | 1.19
11 | RRIRFRPPRLPRPRPRPLKQPRP | 0.053
12 | RRIRNRPPRLPRPRPRPGCAPRP | 0.426
13 | RRIRCRPPRLPRPRPRPLWDPRP | -0.386
14 | RRIRSRPPRLPRPRPRPATKPRP | 0.161
15 | RRIRWRPPRLPRPRPRPLDYPRP | -0.314
16 | RRIRMRPPRLPRPRPRPFTEPRP | 0.0426
17 | RRIRDRPPRLPRPRPRPLLAPRP | 1.2
18 | RRIRCRPPRLPRPRPRPADTPRP | -0.0286
19 | RRIRERPPRLPRPRPRPGDEPRP | 0.115
20 | RRIRNRPPRLPRPRPRPAAVPRP | 0.158
21 | RRIRYRPPRLPRPRPRPGRSPRP | -0.184
22 | RRIRSRPPRLPRPRPRPPKSPRP | 0.271
23 | RRIRLRPPRLPRPRPRPRIFPRP | -0.263
24 | RRIRVRPPRLPRPRPRPKMEPRP | -0.0457
25 | RRIRRRPPRLPRPRPRPRQKPRP | 0.857

Row | Sequence | shrunken log2 fold change
26 | RRIRRRPPRLPRPRPRPFKKPRP | -0.0451
27 | RRIRWRPPRLPRPRPRPCYFPRP | -0.0204
28 | RRIRYRPPRLPRPRPRPQNNPRP | -0.86
29 | RRIRIRPPRLPRPRPRPKFAPRP | -0.0494
30 | RRIRQRPPRLPRPRPRPEAWPRP | 0.316
31 | RRIRQRPPRLPRPRPRPHKMPRP | 0.246
32 | RRIRPRPPRLPRPRPRPGYNPRP | -0.552
33 | RRIRQRPPRLPRPRPRPPIYPRP | -0.129
34 | RRIRMRPPRLPRPRPRPLRCPRP | 1.61
35 | RRIRCRPPRLPRPRPRPVSWPRP | 0.49
36 | RRIRIRPPRLPRPRPRPPKPPRP | 0.0539
37 | RRIRPRPPRLPRPRPRPVMYPRP | -0.0963
38 | RRIRFRPPRLPRPRPRPAVPPRP | 0.0613
39 | RRIRPRPPRLPRPRPRPHSKPRP | -0.14
40 | RRIRCRPPRLPRPRPRPSYMPRP | -0.646
41 | RRIRFRPPRLPRPRPRPTTTPRP | 0.212
42 | RRIRGRPPRLPRPRPRPCWSPRP | 0.144
43 | RRIRARPPRLPRPRPRPVRMPRP | 0.618
44 | RRIRVRPPRLPRPRPRPKKGPRP | 0.13
45 | RRIRCRPPRLPRPRPRPGQYPRP | -0.479
46 | RRIRWRPPRLPRPRPRPTHLPRP | 0.0424
47 | RRIRARPPRLPRPRPRPRVPPRP | 0.428
48 | RRIRSRPPRLPRPRPRPSPQPRP | -0.108
49 | RRIRHRPPRLPRPRPRPGHCPRP | -0.133
50 | RRIRNRPPRLPRPRPRPLHQPRP | -0.112

Row | Sequence | shrunken log2 fold change
51 | RRIRLRPPRLPRPRPRPINWPRP | -0.434
52 | RRIRWRPPRLPRPRPRPMCQPRP | 0.132
53 | RRIRRRPPRLPRPRPRPENIPRP | -0.468
54 | RRIRKRPPRLPRPRPRPNMTPRP | 0.0525
55 | RRIRQRPPRLPRPRPRPATDPRP | -0.0316
56 | RRIRWRPPRLPRPRPRPMYFPRP | -0.555
57 | RRIRHRPPRLPRPRPRPCMLPRP | -0.151
58 | RRIRERPPRLPRPRPRPYVRPRP | -0.00133
59 | RRIRVRPPRLPRPRPRPGFDPRP | 0.0552
60 | RRIRGRPPRLPRPRPRPRTIPRP | 0.375
61 | RRIRSRPPRLPRPRPRPDQDPRP | 0.142
62 | RRIRPRPPRLPRPRPRPPKTPRP | 0.246
63 | RRIRNRPPRLPRPRPRPVGMPRP | 0.23
64 | RRIRVRPPRLPRPRPRPCHTPRP | -0.0202
65 | RRIRKRPPRLPRPRPRPFASPRP | 0.193
66 | RRIRVRPPRLPRPRPRPRMTPRP | 0.265
67 | RRIRDRPPRLPRPRPRPARCPRP | 0.446
68 | RRIRNRPPRLPRPRPRPGYQPRP | -0.0454
69 | RRIRARPPRLPRPRPRPDVIPRP | 0.0534
70 | RRIRYRPPRLPRPRPRPNPAPRP | 0.0854
71 | RRIRWRPPRLPRPRPRPVFGPRP | 0.159
72 | RRIRMRPPRLPRPRPRPFKKPRP | 0.0258
73 | RRIRKRPPRLPRPRPRPPEGPRP | 1.08
74 | RRIRFRPPRLPRPRPRPYRFPRP | -0.243
75 | RRIRQRPPRLPRPRPRPYAQPRP | -0.214

Row | Sequence | shrunken log2 fold change
76 | RRIRGRPPRLPRPRPRPPPYPRP | 0.611
77 | RRIRMRPPRLPRPRPRPQEGPRP | 0.0197
78 | RRIRWRPPRLPRPRPRPTQTPRP | 0.551
79 | RRIRARPPRLPRPRPRPPLTPRP | 0.536
80 | RRIRVRPPRLPRPRPRPKSEPRP | 0.0185
81 | RRIRWRPPRLPRPRPRPLNFPRP | -0.323
82 | RRIRCRPPRLPRPRPRPGSEPRP | 0.286
83 | RRIRKRPPRLPRPRPRPIQAPRP | -0.000921
84 | RRIRARPPRLPRPRPRPQEDPRP | 0.124
85 | RRIRPRPPRLPRPRPRPQREPRP | -0.063
86 | RRIRMRPPRLPRPRPRPTYTPRP | -0.173
87 | RRIRNRPPRLPRPRPRPAGCPRP | 0.00181
88 | RRIRQRPPRLPRPRPRPGDMPRP | -0.164
89 | RRIRRRPPRLPRPRPRPSFGPRP | 0.365
90 | RRIRYRPPRLPRPRPRPAREPRP | 0.00627
91 | RRIRGRPPRLPRPRPRPLDTPRP | 0.963
92 | RRIRPRPPRLPRPRPRPPDPPRP | 0.742
93 | RRIRKRPPRLPRPRPRPLSDPRP | 0.22
94 | RRIRYRPPRLPRPRPRPANYPRP | -0.0328
95 | RRIRDRPPRLPRPRPRPITCPRP | -0.403
96 | RRIRWRPPRLPRPRPRPINDPRP | -0.222
97 | RRIRERPPRLPRPRPRPDHHPRP | -0.478
98 | RRIRWRPPRLPRPRPRPVHLPRP | -0.00868
99 | RRIRPRPPRLPRPRPRPKQGPRP | 0.0197
100 | RRIRCRPPRLPRPRPRPSYYPRP | -0.794

Row | Sequence | shrunken log2 fold change
101 | RRIRPRPPRLPRPRPRPNRAPRP | 0.371
102 | RRIRERPPRLPRPRPRPFTRPRP | -0.0106
103 | RRIRCRPPRLPRPRPRPCCTPRP | -0.238
104 | RRIRGRPPRLPRPRPRPEIEPRP | 1.37
105 | RRIRGRPPRLPRPRPRPNMKPRP | 0.275
106 | RRIRGRPPRLPRPRPRPLKLPRP | 0.164
107 | RRIRARPPRLPRPRPRPNLLPRP | 0.00335
108 | RRIRKRPPRLPRPRPRPDRKPRP | 0.413
109 | RRIRKRPPRLPRPRPRPGNEPRP | 0.204
110 | RRIRIRPPRLPRPRPRPPPAPRP | 0.543
111 | RRIRIRPPRLPRPRPRPDIAPRP | -0.659
112 | RRIRTRPPRLPRPRPRPHVRPRP | -0.00804
113 | RRIRGRPPRLPRPRPRPAENPRP | 0.996
114 | RRIRIRPPRLPRPRPRPDNNPRP | -0.376
115 | RRIRVRPPRLPRPRPRPIHFPRP | -0.0962
116 | RRIRSRPPRLPRPRPRPYQCPRP | -0.00419
117 | RRIRIRPPRLPRPRPRPYDVPRP | -0.101
118 | RRIRCRPPRLPRPRPRPRRHPRP | -0.0331
119 | RRIRPRPPRLPRPRPRPQCLPRP | 0.0368
120 | RRIRYRPPRLPRPRPRPRTQPRP | 0.0444
121 | RRIRGRPPRLPRPRPRPCMHPRP | 0.363
122 | RRIRERPPRLPRPRPRPWSYPRP | 0.0168
123 | RRIRWRPPRLPRPRPRPLKGPRP | 0.0212
124 | RRIRMRPPRLPRPRPRPEGNPRP | 0.182
125 | RRIRDRPPRLPRPRPRPYTKPRP | -1.06

Row | Sequence | shrunken log2 fold change
126 | RRIRRRPPRLPRPRPRPSRTPRP | 0.141
127 | RRIRRRPPRLPRPRPRPDFMPRP | 0.335
128 | RRIRCRPPRLPRPRPRPRWNPRP | 2.15
129 | RRIRIRPPRLPRPRPRPVIKPRP | -0.918
130 | RRIRSRPPRLPRPRPRPWDMPRP | -0.254
131 | RRIRARPPRLPRPRPRPTWEPRP | 1.02
132 | RRIRKRPPRLPRPRPRPYQSPRP | 0.000846
133 | RRIRDRPPRLPRPRPRPLQIPRP | -0.21
134 | RRIRDRPPRLPRPRPRPADHPRP | -0.0509
135 | RRIRQRPPRLPRPRPRPDLYPRP | -0.105
136 | RRIRLRPPRLPRPRPRPNVGPRP | 0.0116
137 | RRIRVRPPRLPRPRPRPGRMPRP | 0.172
138 | RRIRFRPPRLPRPRPRPVPIPRP | -0.0344
139 | RRIRWRPPRLPRPRPRPVCWPRP | 0.758
140 | RRIRDRPPRLPRPRPRPMELPRP | 0.0119
141 | RRIRERPPRLPRPRPRPTRIPRP | 0.17
142 | RRIRPRPPRLPRPRPRPAHCPRP | 0.0637
143 | RRIRRRPPRLPRPRPRPLKVPRP | 0.0966
144 | RRIRHRPPRLPRPRPRPMQGPRP | -0.0154
145 | RRIRNRPPRLPRPRPRPDLSPRP | -0.0537
146 | RRIRKRPPRLPRPRPRPTAVPRP | 0.284
147 | RRIRSRPPRLPRPRPRPDARPRP | 0.1
148 | RRIRTRPPRLPRPRPRPEFKPRP | 0.0563
149 | RRIRQRPPRLPRPRPRPNASPRP | -0.015
150 | RRIRHRPPRLPRPRPRPFDAPRP | 0.00493
